Blank lines part the entries; values can stand above or below the molecule they belong to. Residues, ends and D or L forms follow the SMILES beside them.
Legend:
[1] = pH-solubility profile of candidate peptides (HPLC of filtrate); format: physicochemical; settings: at a pH in the pH range of pH 6 to pH 8; 50 mM sodium phosphate; about 22° C., 24 hours
Procedure: Stock solution A: 0.66 g […] of monobasic sodium phosphate monohydrate U.S.P. and 50 mg EDTA disodium dihydrate, U.S.P. were dissolved in 100 mL of WFI. The solution was filtered through a 0.2 micron filter
Stock solution B: 0.71 g […] of dibasic sodium phosphate U.S.P. were disolved in 100 ml WFI. The solution was filtered through a 0.2 micron filter.
Dispersions A and B were sonicated for 2 minutes for good homogeneity. A small volume was pipetted from each dispersion into a labeled eppendoff vial according to the following volume ratio:
The resultant solutions/suspensions were stored in the dark at about 22° C.±2 for 24 hours without agitation. The solutions were filtered and filtrates were analyzed for pH and peptide concentration.

[2] = pH-stability profile of candidate peptides (percent degradant peak area by HPLC); settings: 3, 2 and 1 mg/ml per peptide; 24 hours at about 5° C. and about 22° C.; common window within pH 6 to pH 8
Procedure: The concentration of filtered peptide solutions was determined by HPLC analysis. In this experiment, the solubility of peptide at each pH is defined as the amount of peptide remaining in solution after filtration through a membrane filter having a 0.2 micrometer pore size. The extent of degradation of peptides was estimated by calculating the percent of total degradant peak area over the total peak area.

human IgE = experiment: Direct binding ELISA of IgE to mite allergen proteins and peptides (Examples XIII, XV)
Procedure: Corning assay plates (#25882-96) were coated with 5 μg/ml of each coating antigen listed in FIGS. 19, 20 and 21 at […] and incubated overnight at 4° C. The coating antigens were removed and the wells are blocked with 0.5% gelatin in PBS, 300 μl/well for 2 hours at room temperature. […] Louis, Mo.) and 100 μl/well a\was added and incubated overnight at 4° C. (plasma dilutions were tested in duplicate). The second antibody (biotinylated goat anti-Human IgE, 1:1000, Kirkegaard & Perry Laboratories Inc, Gaithersburg, Md.), was added at 100 μl/well for one hour at room temperature. This solution was removed and streptavidin-HRPO, 1:10000, (Southern Biotechnology Associates, Inc., Birmingham, Ala.) was then added at 100 μl/well for one hour at room temperature (all wells are washed three times with PBS-Tween between each incubation step). TMB Membrane Peroxidase Substrate system (Kirkegaard & Perry Laboratories) was freshly miced, and added at […]. The color was allowed to develop for 2-5 minutes. The reaction was stopped by the addition of […] of 1M phosphoric acid. Plates were read on a Microplate IL310 Autoreader (Biotech Instruments, Winooski, Vt.) with a 450 nm filter. The absorbance levels of duplicate wells were averaged. The order of coating antigens listed vertically in these figure legends corresponds in […] from left to right to the coating antigens listed for each histogram.

[3] = system: PBMC from mite-allergic patient; experiment: Primary PBMC proliferation (3H-thymidine) to Der p I/Der p II proteins and peptides, Example IV; format: cell-based, human; settings: for CPM ± S.D.: 7 days culture; for S.I.: CPM with antigen / CPM medium only
Procedure: Peripheral blood mononuclear cells (PBMC) were purified by Ficoll-Hypaque centrifugation of a peripheral blood specimen from mite-allergic patient and were assayed for proliferation in response to various antigens, i.e., affinity-purified Der p I, affinity purified […], various Der p I and Der p II peptides. For assay, 5×10^4 PBMC were cultured in triplicate microwells for 7 days at 37° C. in the presence of various concentrations of antigen in 200 μl RPMI-1640 containing 5% human AB serum. Each well then received 1 μCi tritiated thymidine for 16 hours. The counts incorporated were collected onto glass fiber filters and processed for liquid scintillation counting. […] The CPM+/− standard deviation are shown. The stimulation index of each response (S.I.) is the ratio of the ^3H-thymidine CPM incorporated by the cells in response to antigen divided by the ^3H-thymidine CPM incorporated by cells in medium only. […] Thus, these peptides contain Der p I or Der p II T cell epitopes recognized by T cells from this particular allergic patient.

[4] = pooled human plasma from 20 mite skin test positive patients, coating antigen 5 μg/ml, FIGS. 19-21
[5] = plasma from 19 mite-allergic patients and a pool of 18 additional patients, Example XV

IgE binding in direct ELISA (human IgE; [4]): binding
B1: biochemically purified Der f II: Group II protein allergen of Dermatophagoides farinae, immunoaffinity purified native form (protein)
chain: DQVDVKDCANNEIKKVMVDGCHGSDPCIIHRGKPFTLEALFDANQNTKTAKTEIKASLDGLEIDVPGIDTNACHFMKCPLVKGQQYDAKYTWNVPKIAPKSENVVVTVKLVGDNGVLACAIATHAKIRD

IgE binding in direct ELISA (human IgE; [4]): binding
B6: biochemically purified Der f I: Group I protein allergen of Dermatophagoides farinae, immunoaffinity purified native form (protein)
chain: TSACRINSVNVPSELDLRSLRTVTPIRMQGGCGSCWAFSGVAATESAYLAYRNTSLDLSEQELVDCASQHGCHGDTIPRGIEYIQQNGVVEERSYPYVAREQRCRRPNSQHYGISNYCQIYPPDVKQIREALTQTHTAIAVIIGIKDLRAFQHYDGRTIIQHDNGYQPNYHAVNIVGYGSTQGDDYWIVRNSWDTTWGDSGYGYFQAGNNLMMIEQYPYVVIM

IgE binding in direct ELISA (human IgE; [4]): no detectable binding
B7: recombinant Der f I: recombinant Der f I expressed in E. coli as His6 fusion (protein)
chain: MGHHHHHHEFTSACRINSVNVPSELDLRSLRTVTPIRMQGGCGSCWAFSGVAATESAYLAYRNTSLDLSEQELVDCASQHGCHGDTIPRGIEYIQQNGVVEERSYPYVAREQRCRRPNSQHYGISNYCQIYPPDVKQIREALTQTHTAIAVIIGIKDLRAFQHYDGRTIIQHDNGYQPNYHAVNIVGYGSTQGDDYWIVRNSWDTTWGDSGYGYFQAGNNLMMIEQYPYVVIM

Further lines, the molecule ahead of its results:

Molecule: CC[C@H](C)[C@H](NC(=O)[C@H](C)NC(=O)[C@H](CS)NC(=O)[C@H](C)NC(=O)[C@H](CC(C)C)NC(=O)[C@@H](NC(=O)CNC(=O)[C@H](CC(=O)O)NC(=O)[C@H](CC(=O)O)NC(=O)CNC(=O)[C@H](CCSC)NC(=O)[C@@H](NC(=O)[C@H](CCCCN)NC(=O)[C@@H](NC(=O)[C@@H](NC(=O)[C@H](CCC(=O)O)NC(=O)[C@H](CCC(=O)O)NC(=O)[C@@H](N)CC(=O)O)[C@@H](C)O)C(C)C)C(C)C)C(C)C)C(=O)N[C@@H](C)C(=O)N[C@H](C(=O)N[C@@H](Cc1c[nH]cn1)C(=O)N[C@@H](C)C(=O)N[C@@H](CCCCN)C(=O)N[C@H](C(=O)N[C@@H](CCCNC(=N)N)C(=O)N[C@@H](CC(=O)O)C(=O)N[C@@H](CCC(=O)O)C(=O)N[C@@H](CCC(=O)O)C(=O)O)[C@@H](C)CC)[C@@H](C)O [DP II-25.15] (H-DEETVKVMGDDGVLACAIATHAKIRDEE-OH; N-terminus and C-terminus assumed)
solubility thermodynamic at 24 h [1]: > 3000 µg/mL
solution stability in equal concentration combination [2]: acceptable solution stability

B2: Der p II: Group II protein allergen of Dermatophagoides pteronyssinus, immunoaffinity purified native form (protein)
chain: DQVDVKDCANHEIKKVLVPGCHGSEPCIIHRGKPFQLEAVFEANQNTKTAKIEIKASIDGLEVDVPGIDPNACHYMKCPLVKGQQYDIKYTWNVPKIAPKSENVVVTVKVMGDDGVLACAIATHAKIRD
CPM ± S.D. ([3]; antigen 10 μg/ml): 1113 ± 35 CPM
S.I. ([3]; antigen 10 μg/ml): 1.0
CPM ± S.D. ([3]; antigen 30 μg/ml): 2104 ± 43 CPM
S.I. ([3]; antigen 30 μg/ml): 2.0
CPM ± S.D. ([3]; antigen 100 μg/ml): 1057 ± 27 CPM
S.I. ([3]; antigen 100 μg/ml): 1.0
IgE binding in direct ELISA (human IgE; [5]): All samples did contain IgE
IgE binding in direct ELISA (human IgE; [4]): good binding

B3: Der p I: Group I protein allergen of Dermatophagoides pteronyssinus, immunoaffinity purified native form (protein)
chain: TNACSINGNAPAEIDLRQMRTVTPIRMQGGCGSCWAFSGVAATESAYLAHRNQSLDLAEQELVDCASQHGCHGDTIPRGIEYIQHNGVVQESYYRYVAREQSCRRPNAQRFGISNYCQIYPPNANKIREALAQTHSAIAVIIGIKDLDAFRHYDGRTIIQRDNGYQPNYHAVNIVGYSNAQGVDYWIVRNSWDTNWGDNGYGYFAANIDLMMIEEYPYVVIL
CPM ± S.D. ([3]; antigen 10 μg/ml): 920 ± 15 CPM
S.I. ([3]; antigen 10 μg/ml): 0.9
CPM ± S.D. ([3]; antigen 30 μg/ml): 2122 ± 93 CPM
S.I. ([3]; antigen 30 μg/ml): 2.0
CPM ± S.D. ([3]; antigen 100 μg/ml): 1492 ± 13 CPM
S.I. ([3]; antigen 100 μg/ml): 1.4
IgE binding in direct ELISA (human IgE; [5]): All samples did contain IgE

B4: recombinant Der f II: recombinant Der f II expressed in E. coli as His6 fusion (protein)
chain: MGHHHHHHEFDQVDVKDCANNEIKKVMVDGCHGSDPCIIHRGKPFTLEALFDANQNTKTAKTEIKASLDGLEIDVPGIDTNACHFMKCPLVKGQQYDAKYTWNVPKIAPKSENVVVTVKLVGDNGVLACAIATHAKIRD
IgE binding in direct ELISA (human IgE; [4]): binding

B5: rDer p II: recombinant Der p II expressed in E. coli as His6 fusion (protein)
chain: MGHHHHHHEFDQVDVKDCANHEIKKVLVPGCHGSEPCIIHRGKPFQLEAVFEANQNTKTAKIEIKASIDGLEVDVPGIDPNACHYMKCPLVKGQQYDIKYTWNVPKIAPKSENVVVTVKVMGDDGVLACAIATHAKIRD
IgE binding in direct ELISA (human IgE; [4]): good binding

— patent publication US7288256B1, “T cell epitopes of the major allergens from dermatophagoides (house dust mite)” (Merck Patent GmbH, priority 1991, dated 2007)
